Values quoted from earlier work, collected in patent US20260250369A1, “METHODS OF TREATING LIVER FIBROSIS, INFLAMMATION OR ASSOCIATED DISEASES USING AN ANGPTL4 ANTAGONIST” (Nanyang Technological University, priority 2022, published 2026).

Biological target: T1, human cANGPTL4 (Homo sapiens, UniProt Q9BY76)
T1 sequence (Q9BY76 186-406 limits assumed): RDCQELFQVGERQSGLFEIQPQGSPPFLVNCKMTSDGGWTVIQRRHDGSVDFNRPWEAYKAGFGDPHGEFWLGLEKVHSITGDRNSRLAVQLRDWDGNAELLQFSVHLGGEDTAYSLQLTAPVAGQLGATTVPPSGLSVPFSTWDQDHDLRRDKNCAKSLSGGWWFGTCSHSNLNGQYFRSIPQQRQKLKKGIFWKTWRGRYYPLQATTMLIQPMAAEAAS

B1: mAb11F6C4: murine monoclonal antibody directed against human cANGPTL4; heavy chain SEQ ID NO 15, light chain SEQ ID NO 16 (antibody, V domains shown)
VH: QVQLQESGPGILKPSQTLSLTCSFSGFSLSTSGMGVGWIRQPSGKGLERLAHIWWDDDKYYNPSLKSQLTISKDTSRNQVFLKIISVDTADTATYYCARKDYGSSYDYRGQGTTVTVS
VL: DIELTQSPASLAVSLGQRATISCKASQSVDYDGDSYLNRFQQKPGQPPKLLIYTASNLESGIPARFSGSGSGTDFTLNIHPVEEEDAATYYCQQSNEDPWTFGGGTKLEIKR
With B1 as the molecule, how does the “Effect on mitochondrial activities and glucose regulations of ANGPTL4” value read?
The value was “does not affect”.

What about the Epitope targeted of the same molecule?
Its Epitope targeted is “target an epitope that resides within the C-terminus of human ANGPTL4”.
